Results from publication PMC8245568, “Xyloglucan processing machinery in Xanthomonas pathogens and its role in the transcriptional activation of virulence factors” (Nature Communications, 2021).

Columns and labels:
[1] = target: the molecule itself; test: SEC-MALS; 25 °C; Superdex 200 HR 10/300 GL; 250 μL of protein at 50 μmol L^-1 injected; 20 mmol L^-1 HEPES pH 7.5, 150 mmol L^-1 NaCl
[2] = target: the molecule itself; test: SAXS; protein samples at 1, 3, 5 and 10 mg mL^-1; D01A-SAXS2 beamline (LNLS); molecular weight by SAXSMoW

B1: XacGalD, GH35 β-galactosidase encoded by XAC1772 of Xanthomonas citri pv. citri 306, wild type (enzyme)
chain: not shown
notes: source: E. coli, purified (two chromatographic steps)
- stoichiometry N [1]: 4

B2: XacAfc95, GH95 α-1,2-L-fucosidase encoded by XAC1774 of Xanthomonas citri pv. citri 306 (enzyme)
chain: not shown
notes: A signal peptide was probably left out of the construct (surmise); also called GH95 α-L-fucosidase; source: E. coli, purified (two chromatographic steps)
- stoichiometry N [2]: 2
